Molecular target: Ca2+
Test: in situ Ca2+ titration of FRET with mNGΔN5-SOAR1L
Settings: 25 µM digitonin, 10 µM ionomycin, EGTA

Kd (cells transfected with CasRx-P4HB (P4HB knockdown), Hill n 2.8±0.09): 740 µM
Kd (cells transfected with CasRx-PDIA3 (PDIA3 knockdown), Hill n 2.8±0.12): 750 µM
Kd (cells transfected with control CasRx, Hill n 2.7±0.12): 760 µM
Substance: STIM1 1-310-CFPΔC11 C49A; C56A
